Measurements reported in patent US7582427B2, “Method of estimating drug metabolic activity by analyzing mutations in glucuronosyl transferase gene” (National University Corporation Shiga University of Medical …, priority 2002, dated 2009).
Substitutions are numbered along the chain they refer to. Names may count otherwise.

T1: UGT1A1 (Homo sapiens, UniProt P22309, Y486D)
T1 sequence (P22309 26-533 Y486D): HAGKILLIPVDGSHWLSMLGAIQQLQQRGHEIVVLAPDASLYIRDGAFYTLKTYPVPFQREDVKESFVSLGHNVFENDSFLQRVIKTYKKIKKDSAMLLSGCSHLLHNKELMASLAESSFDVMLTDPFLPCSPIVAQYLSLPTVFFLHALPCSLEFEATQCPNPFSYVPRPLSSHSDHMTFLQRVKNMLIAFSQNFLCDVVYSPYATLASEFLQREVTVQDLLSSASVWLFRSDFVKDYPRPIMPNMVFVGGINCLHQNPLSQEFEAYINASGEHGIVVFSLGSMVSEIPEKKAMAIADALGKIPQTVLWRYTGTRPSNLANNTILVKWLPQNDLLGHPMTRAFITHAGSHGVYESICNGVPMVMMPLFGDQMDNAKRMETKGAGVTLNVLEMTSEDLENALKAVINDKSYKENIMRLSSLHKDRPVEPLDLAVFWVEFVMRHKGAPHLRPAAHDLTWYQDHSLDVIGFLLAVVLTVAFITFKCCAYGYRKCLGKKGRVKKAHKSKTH

B1: Y486D (homozygous): recombinant UGT1A1 molecule with Y486D mutation (exon 5), tyrosine replaced with aspartic acid at position 486 (protein, UniProt P22309 26-533, looked up, variant Y486D)
UDP-glucuronosyltransferase …: T1 sequence (P22309 26-533 Y486D)
modifications: homozygous
B2: P229Q (heterozygous): recombinant UGT1A1 molecule corresponding to heterozygous P229Q mutation (protein, UniProt P22309 26-533, looked up, variant P229Q)
UDP-glucuronosyltransferase …: T1 sequence (P22309 26-533 Y486D) with P204Q, D461Y
modifications: heterozygous
notes: recombinant UGT1A1 molecule corresponding to heterozygous P229Q mutation
B3: Y486D (heterozygous): recombinant UGT1A1 molecule corresponding to heterozygous Y486D mutation (protein, UniProt P22309 26-533, looked up, variant Y486D)
UDP-glucuronosyltransferase …: T1 sequence (P22309 26-533 Y486D)
modifications: heterozygous
notes: recombinant UGT1A1 molecule corresponding to heterozygous Y486D mutation

Legend:
UGT1A1 [1] = target: T1, UGT1A1; assay: Enzyme kinetics of glucuronidation of 2-amino-5-nitro-4-trifluoromethylphenol by UGT1A1, normal versus Y486D; assay type: biochemical
Source text: 2-amino-5-nitro-4-trifluoromethylphenol is glucuronidated by UGT. The enzymatic reactions in glucuronidation by the enzymes of each of the isoforms UGT1A1 and UGT1A6 between their normal molecules and molecules with Y486D mutation were compared, respectively.

UGT1A1 molecule = assay: UGT activity (glucuronidation) of recombinant UGT1A1 molecules, bilirubin as substrate; assay type: biochemical, human; settings: relative to normal
Source text: Further, it was shown that an abnormality of drug metabolism can be assayed for more effectively by combining this detection with detection of (a) mutation(s) in the regions of exons 1 to 4 other than the exon 5 region.

UGT1A1 [2] = target: T1, UGT1A1; settings: fraction of normal enzyme activity, background report; cited from earlier work

Row | Molecule | maximum velocity relative to the maximum velocity of the wild type (UGT1A1 [1]; substrate 2-amino-5-nitro-4-trifluoromethylphenol) | Km value relative to wild type (UGT1A1 [1]; with respect to 2-amino-5-nitro-4-trifluoromethylphenol) | Km value relative to wild type (UGT1A1 [1]; with respect to UDP-glucuronate) | UGT relative activity (glucronidation activity) (UGT1A1 molecule) [%] | enzyme activity relative to that of the normal enzyme (UGT1A1 [2])
1 | B1 | about 12% | about half of that of the wild type | equal to that of the wild type | 8 | 1/13
2 | B2 |  |  |  | 15 | 
3 | B3 |  |  |  | 36 | 
